Data reported in paper PMC5007331, “YTHDF2 destabilizes m^6A-containing RNA through direct recruitment of the CCR4–NOT deadenylase complex” (Nature Communications, 2016).

B1: His-tagged YTHDF2-101-200 (domain or fragment, human, UniProt Q9Y5A9 101-200, looked up)
chain: PDAMFGQPGALGSTPFLGQHGFNFFPSGIDFSAWGNNSSQGQSTQSSGYSSNYAYAPSSLGGAMIDGQSAFANETLNKAPGMNTIDQGMAALKLGSTEVA
notes: Cloned into pET-28a; source: E. coli, purified recombinant
B2: CNOT1 SH domain-GST fusion protein (aa 1842-2376) (domain or fragment, human, UniProt A5YKK6 1842-2376, looked up)
chain: YDDPPGLREKAEYLLREWVNLYHSAAAGRDSTKAFSAFVGQMHQQGILKTDDLITRFFRLCTEMCVEISYRAQAEQQHNPAANPTMIRAKCYHNLDAFVRLIALLVKHSGEATNTVTKINLLNKVLGIVVGVLLQDHDVRQSEFQQLPYHRIFIMLLLELNAPEHVLETINFQTLTAFCNTFHILRPTKAPGFVYAWLELISHRIFIARMLAHTPQQKGWPMYAQLLIDLFKYLAPFLRNVELTKPMQILYKGTLRVLLVLLHDFPEFLCDYHYGFCDVIPPNCIQLRNLILSAFPRNMRLPDPFTPNLKVDMLSEINIAPRILTNFTGVMPPQFKKDLDSYLKTRSPVTFLSDLRSNLQVSNEPGNRYNLQLINALVLYVGTQAIAHIHNKGSTPSMSTITHSAHMDIFQNLAVDLDTEGRYLFLNAIANQLRYPNSHTHYFSCTMLYLFAEANTEAIQEQITRVLLERLIVNRPHPWGLLITFIELIKNPAFKFWNHEFVHCAPEIEKLFQSVAQCCMGQKQAQQVMEGTGAS
B3: His-tagged YTHDF2-N (YTHDF2-1-400) (domain or fragment, human, UniProt Q9Y5A9 1-400, looked up)
chain: MSASSLLEQRPKGQGNKVQNGSVHQKDGLNDDDFEPYLSPQARPNNAYTAMSDSYLPSYYSPSIGFSYSLGEAAWSTGGDTAMPYLTSYGQLSNGEPHFLPDAMFGQPGALGSTPFLGQHGFNFFPSGIDFSAWGNNSSQGQSTQSSGYSSNYAYAPSSLGGAMIDGQSAFANETLNKAPGMNTIDQGMAALKLGSTEVASNVPKVVGSAVGSGSITSNIVASNSLPPATIAPPKPASWADIASKPAKQQPKLKTKNGIAGSSLPPPPIKHNMDIGTWDNKGPVAKAPSQALVQNIGQPTQGSPQPVGQQANNSPPVAQASVGQQTQPLPPPPPQPAQLSVQQQAAQPTRWVAPRNRGSGFGHNGVDGNGVGQSQAGSGSTPSEPHPVLEKLRSINNYNP
notes: YTHDF2, human, N-terminal region, aa 1-400; Cloned into pET-28a; The YTHDF2-N of the tethering plasmids is another construct (aa 1-389); source: E. coli, purified recombinant

What was measured:
[1] = biological target: B2; assay: pull-down; GST pull-down: 40 pmol YTHDF2 fragment with 40 pmol GST or GST-CNOT1 (aa 1842-2376) on glutathione Sepharose-4B; 20 mM HEPES pH 7.4, 200 mM NaCl, 0.1% Tween-20; 2 h at 4 °C; SDS-PAGE and Coomassie Blue staining; conditions: both partners purified
[2] = biological target: T1, His-tagged full-length YTHDF2 (human, UniProt Q9Y5A9 1-579); assay: as above; conditions: both partners purified
T1 sequence (looked up): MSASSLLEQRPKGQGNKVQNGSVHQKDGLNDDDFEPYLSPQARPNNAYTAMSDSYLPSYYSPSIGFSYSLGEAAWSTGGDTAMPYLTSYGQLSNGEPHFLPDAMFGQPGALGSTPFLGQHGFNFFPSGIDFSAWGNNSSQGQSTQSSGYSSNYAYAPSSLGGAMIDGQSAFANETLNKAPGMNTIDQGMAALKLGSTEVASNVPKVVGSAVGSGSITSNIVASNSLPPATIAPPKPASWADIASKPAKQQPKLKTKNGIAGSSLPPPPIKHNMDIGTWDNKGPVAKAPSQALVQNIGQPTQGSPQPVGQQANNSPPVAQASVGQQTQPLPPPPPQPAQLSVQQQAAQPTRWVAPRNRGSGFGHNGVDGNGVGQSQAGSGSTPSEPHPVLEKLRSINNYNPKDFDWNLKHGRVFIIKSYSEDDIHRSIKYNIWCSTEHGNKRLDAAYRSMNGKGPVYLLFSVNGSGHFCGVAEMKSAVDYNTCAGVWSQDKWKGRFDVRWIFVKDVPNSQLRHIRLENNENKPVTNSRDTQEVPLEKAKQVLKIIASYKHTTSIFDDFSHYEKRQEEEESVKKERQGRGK

**Q.** Does B1 bind [1]?
**A.** binds

**Q.** Does B2 bind [2]?
**A.** binds

**Q.** Does B3 bind [1]?
**A.** binds
